Results taken from the supplement of paper PMC9170038.

Tested on: MS2 coat protein
Test: apparent KD of MS2 coat protein; designed switch direction (-1 OFF switch, 1 ON switch): -1; higher = weaker reporter binding
In short: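 Each step of the titration lasted 0.8–1.5 h at the lowest concentration and 10–20 min at the highest. The protein, SNAP-549-labelled MS2 coat protein, went from 0.7 or 1.5 nM doubling to 3 µM over RNA switches transcribed on Illumina chips by stalled E. coli RNA polymerase. Normalised cluster fluorescence was curve-fitted, and the per-design median over clusters is given as apparent KD.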

[1] = input ligand: microRNA oligo, concentration not stated
[2] = Eterna round: R95, input ligand: microRNA oligo, concentration not stated
[3] = Eterna round: R95, input ligand: FMN 200 uM
[4] = Eterna round: R95, input ligand: none

| Sequence | apparent KD of MS2 coat protein (input ligand: FMN 200 uM) | apparent KD of MS2 coat protein (input ligand: none) | apparent KD of MS2 coat protein [1] | apparent KD of MS2 coat protein [2] | apparent KD of MS2 coat protein [3] | apparent KD of MS2 coat protein [4] |
| --- | --- | --- | --- | --- | --- | --- |
| CUAACAUGCUGGUGAUCAUACAUGAGGAUCACCCAUGUAACAAGCUUUUUGCUCGUCUUAAUUUAAUUGAUUACUAG [Stov1/8-A3] (Eterna round: R97, puzzle: Sensor, turn-off variant 1) | 88.9 nM | 113 nM | – | – | – | – |
| GACAUGAGGAUCACCCAUGUAACCAGGGCAAUUCUCGAAAUGGAGGAUAUGAAUCUUAAUUAGGUUCAGAAGGCCAGAAGGCUA [Eternabot solution 29] (Eterna round: R96, puzzle: Exclusion NG 3) | 784 nM | 206 nM | 194 nM | – | – | – |
| UCAUACGUUGAGGAUAUGUCAGUUAGUAUAUUUACAGAAGGCGAUACAUGAGGAUCACCCAUGUUUAUGGGCAU [Ex-6 Malc#4] (puzzle: Exclusion 6) | – | – | – | 225 nM | – | – |
| CAGAACUGAGGAUAUACAUGAGGAUCACCCAUGUGUUCCAGCUAGGAGACUAGCAUAUGUAGAAGGCAGUUCUG [Mat - Exclusion 3 - JL Mod - D11] (Eterna round: R97, puzzle: Exclusion 3) | 587 nM | 359 nM | – | – | – | – |
| AAAUACAAGUAAAGAUUCUACAUGAGGAUCACCCAUGUGCUCGUCUUAUAAAGUACUAUCACGAAAGUGAUAGUACA [Sensor 3, v1 - 26] (puzzle: Sensor v3, turn-off variant 1) | – | – | – | 188 nM | 17 nM | 15 nM |
| CUAUAUUUAGGAUAUGUUCGGCUAGACAUGAGGAUCACCCAUGUGAGCCUAGGAGCAGCCACAGAAGGGAGUAUGU [Eternabot (L2) Solution 62] (Eterna round: R97, puzzle: Exclusion 5) | 27.6 nM | 32.8 nM | – | – | – | – |
| AAAUCUGAGAAGGAUAUGGUACAGGAAAUGGUGCCAGAAGGUUUCACAUGAGGAUCACCCAUGUCGAAUAGUGA [EX6 #65] (Eterna round: R97, puzzle: Exclusion 6) | 29.6 nM | 19.3 nM | – | – | – | – |
| AUCAGCUCGUGAGGAUAUACAUCACUGCUUCGGCAGUGUAUUAAGAUCACAUGAGGAUCACCCAUGUAGAAGGUACGAGCUGAU [ENG2/2-C3] (Eterna round: R96, puzzle: Exclusion NG 2) | 215 nM | 26.1 nM | 20.8 nM | – | – | – |
| AAUAAGCGAGGAUAUACACCCGGAAAACGGGAACGGGCGAGACAUGAGGAUCACCCAUGUAGAAGGCGCGUCAA [Sogexe] (Eterna round: R97, puzzle: Exclusion 2) | 28 nM | 77.9 nM | – | – | – | – |
| GCAGCAUAUGUAGGAUAUCUGCACGUGUAGUGCAGAGAAGGACAUGAGGAUCACCCAUGUAAUUAAGAUCAAUUAUUAAGCUGC [ENG1/4-A3] (Eterna round: R96, puzzle: Exclusion NG 1) | 37.7 nM | 22.2 nM | 17.3 nM | – | – | – |
| ACAUGUAUUGCAGGAUAUGGGACACAUGAGGAUCACCCAUGUGACCAUAUGUAAUGCUAAGAGUCUCAGAAGGGUAUGUACAUG [Ex NG2 #45] (Eterna round: R96, puzzle: Exclusion NG 2) | 10.7 nM | 11.4 nM | 8.59 nM | – | – | – |
| CCAAGCUUAUUCAUUAACAACAUGAGGAUCACCCAUGUGUAAGCAAUUAUGUUUGGGCUCUUUAGUGCUCGUCUUAU [Sensor-V1 #21] (Eterna round: R97, puzzle: Sensor, turn-off variant 1) | 13.7 nM | 13.9 nM | – | – | – | – |
| UAACAACAUGAGGAUCACCCAUGUGAGGAUAUGUACGUUCGUUGGCGAACCUUGUUCCGCAGAAGGCAUGUGGG [Eternabot (L1) Solution 28] (Eterna round: R97, puzzle: Exclusion 1) | 232 nM | 38.6 nM | – | – | – | – |
| UCCUUACAUGAGGAUCACCCAUGUCAGGAUAUCUCGGGCGGCUGAGGACCAGCCGCCCAGAGAAGGGACGAGGA [Dixeinis] (puzzle: Exclusion 1) | – | – | – | 23.1 nM | 38.6 nM | 31.3 nM |
| AGUUGGCGAGGAUAUACAUGAGGAUCACCCAUGUGAAUAAGAAUAGUGAGGAAGAAAAGUAGAAGGCGCUGACA [Mat - Exclusion 3 - Mod of Salish D36] (puzzle: Exclusion 3) | – | – | – | 39.8 nM | 237 nM | 44.5 nM |
| ACAUGUCAUCGAGGAUAUUGUACACAUGAGGAUCACCCAUGUACUCGGUUGCUCUAGCAUGCGUUCGAGAAGGCGAUGUACAUU [Ex NG2 #98] (Eterna round: R96, puzzle: Exclusion NG 2) | 52 nM | 144 nM | 88.8 nM | – | – | – |
| AGUACUAACGCGAAAGUGUUAGUACAAUAAGCUUGUGAAACAUGAGGAUCACCCAUGUCCUCAUAAGCUCGUCUUAU [salish99_TOv2_r3_023] (puzzle: Sensor v3, turn-off variant 2) | – | – | – | 549 nM | 19 nM | 16.1 nM |
| CCCAAGUCAGGAUAUGGAACACAGAGACAUCUCUGUGCCCACCAGAAGGGACAUGAGGAUCACCCAUGUGAUGA [Soesat] (puzzle: Exclusion 4) | – | – | – | 56.6 nM | – | – |

| Sequence | apparent KD of MS2 coat protein (input ligand: FMN 200 uM) | apparent KD of MS2 coat protein (input ligand: none) | apparent KD of MS2 coat protein [1] | apparent KD of MS2 coat protein [2] | apparent KD of MS2 coat protein [3] | apparent KD of MS2 coat protein [4] |
| --- | --- | --- | --- | --- | --- | --- |
| AGGGAUAAAGGAUAUACAUGAGGAUCACCCAUGUUGAGGAAAGUGAGAGGUGGCGAUAGUAGAAGGUUAGGUGG [JR_Exclu3_Sub083] (puzzle: Exclusion 3) | – | – | – | 79.9 nM | – | – |
| CUCAUGUGUGAGGAUAUUAGAGCGAGCGUGUGAUAAGAAGGCACAACAUGAGGAUCACCCAUGUAGAGAGAGUG [Alacar 1st] (Eterna round: R97, puzzle: Exclusion 6) | 28.9 nM | 69.6 nM | – | – | – | – |
| CAGUACUGAGGAUAUACAUGAGGAUCACCCAUGUGCCUAAGCUAGGAUACUAGCAUUAGUAGAAGGCAGUACUG [Fiskers Ex 3 828 mod 15] (puzzle: Exclusion 3) | – | – | – | 13.6 nM | – | – |
| AGCCCUGCAGGAUAUGCCCGGGAUAACAUGAGGAUCACCCAUGUGACUGAUUGUUAUCCUGCAGAAGGGCAUGGGA [JL-EX5-4.13 ViennaUCT mod] (Eterna round: R97, puzzle: Exclusion 5) | 547 nM | 1000 nM | – | – | – | – |
| GUACUGACAGGAUAUACAUGAGGAUCACCCAUGUGCCUUAUCGCUACAAAAGUAGCGAGUAGAAGGGUCUGUAC [Omei Ex3 Model Bachelor's Dilema v18] (Eterna round: R97, puzzle: Exclusion 3) | 27.1 nM | 16.6 nM | – | – | – | – |
| GUUGUUACUGAGGAUAUUAUUUUAUUCGAUUGAUAAGAAGGCAGUACAUGAGGAUCACCCAUGUGGGUAGUUAG [Polaris21] (Eterna round: R97, puzzle: Exclusion 6) | 270 nM | 338 nM | – | – | – | – |
| AAAGAGCAAGGAUAUACAUGAGGAUCACCCAUGUAGUACGUGAACCAGGUUUUCCUGAGUAGAAGGUGCAGACA [Dibira] (puzzle: Exclusion 3) | – | – | – | 28.1 nM | – | – |
| GCUAGCCAUGUCAGGAUAUGCUGUACCUUGGUACAGCAGAAGGGACAUGAGGAUCACCCAUGUGCCUAGCUAGC [JL-BMX4-4.03] (Eterna round: R97, puzzle: Brourd's mod of Exclusion 4) | 197 nM | 27.1 nM | – | – | – | – |
| UGCAAUCUUAUGAUAUCUCACAUGAGGAUCACCCAUGUGCUCGUCUUAUGUUCUGUUUUGCUGUUGUCCGGCCGGCC [1st try] (Eterna round: R97, puzzle: Sensor, turn-off variant 1) | 27.5 nM | 31.3 nM | – | – | – | – |
| UAUUAGUAAGGAUAUGCGACGUAGGACGAAAGUCCUACGUCGCAGAAGGUACAUGAGGAUCACCCAUGUCUAUU [Mod of Fisker 11 - Jieux - Exclusion 4] (Eterna round: R97, puzzle: Exclusion 4) | 20.5 nM | 18.7 nM | – | – | – | – |
| AUUAUAUAGACAGGAUAUUGAUUAUUAUUUUAACAUGAGGAUCACCCAUGUAACCUUAUGUGUAACAAGAAGGGUCAUUUAUUA [Title] (Eterna round: R96, puzzle: Exclusion NG 2) | 188 nM | 106 nM | 99.6 nM | – | – | – |
| GAUUACUGCAAGCUUUGGGACAUGAGGAUCACCCAUGUUCGUCUUAUUGAUCUAGGUACGCUGACGUACCUAGAUCU [JL-sv1-2.28 Brourd mod] (puzzle: Sensor v3, turn-off variant 1) | – | – | – | 26 nM | 15.8 nM | 14.1 nM |
| GUCUUGAUAGGAUAUACAUGAGGAUCACCCAUGUCCCACCCGUUACCUCUGACCCUAUGUAGAAGGAUCGUUUG [Exy#17] (Eterna round: R97, puzzle: Exclusion 3) | 34.3 nM | 48.3 nM | – | – | – | – |
| UUGAUGUGAGGAUAUAUUUUGUGUUUUCUUUAUGUUUUAUAACUUGAGGAUCACCCAAGUAGAAGGCGCUACGU [JR_Ex2_Sub065] (Eterna round: R97, puzzle: Exclusion 2) | 119 nM | 60.6 nM | – | – | – | – |
| GGUAAGCUAGGAUAUGCUUUGGGAAAGCAUUCCUUCGAUAAACUUGAGGAUCACCCAAGUAGAAGGAGCUUCCC [salish99_ex2_r4_017] (Eterna round: R97, puzzle: Exclusion 2) | 11.2 nM | 11 nM | – | – | – | – |
| GUAUAACAUGAGGAUCACCCAUGUGAGGAUAUGCGAAUUUCAUCAAAAGAUGAAAUUUGCAGAAGGCACAGUAC [Omei Ex1 A12] (Eterna round: R97, puzzle: Exclusion 1) | 93 nM | 66.3 nM | – | – | – | – |
| GUGCCGCGAGGAUAUACAGACGGGUCCAUUACGUGUCUCGGACUUGAGGAUCACCCAAGUAGAAGGCGUCUCGG [salish99_ex2_r4_627] (Eterna round: R97, puzzle: Exclusion 2) | 26 nM | 27.9 nM | – | – | – | – |
